The results in this text go back to PMC5671938, “Multimerin-2 is a ligand for group 14 family C-type lectins CLEC14A, CD93 and CD248 spanning the endothelial pericyte interface” (Oncogene, 2017).

In this assay the target is T1, recombinant CLEC14A extracellular domain with an Fc tag (CLEC14A-ECD-Fc) (human, UniProt Q86T13 22-397).
T1 construct: CLEC14A, human, extracellular domain; Human IgG Fc alone served as the control for the Fc tag; also called hCLEC14A-ECD-Fc; CLEC14A-Fc
T1 sequence (looked up): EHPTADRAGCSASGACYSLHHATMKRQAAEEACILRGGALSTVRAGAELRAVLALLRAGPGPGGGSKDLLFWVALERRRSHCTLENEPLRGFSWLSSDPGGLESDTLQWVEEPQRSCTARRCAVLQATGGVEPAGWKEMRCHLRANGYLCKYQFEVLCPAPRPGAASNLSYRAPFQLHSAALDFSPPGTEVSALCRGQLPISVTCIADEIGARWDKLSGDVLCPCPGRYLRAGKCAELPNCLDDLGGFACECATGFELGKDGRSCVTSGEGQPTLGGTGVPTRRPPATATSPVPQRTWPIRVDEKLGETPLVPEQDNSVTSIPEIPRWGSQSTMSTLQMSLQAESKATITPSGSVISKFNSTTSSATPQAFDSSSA
Description: flow cytometry on cells; blocking: hCLEC14A-ECD-Fc incubated with 2 x molar excess of MMRN2^495-674 or MMRN2^495-603 for 1 h at 4 °C, then used to stain the HUVEC surface; anti-hFc-FITC. Conditions: both partners purified.

B1: MMRN2^495-674 expressed and purified from E. coli (blocking experiments) (domain or fragment, human, UniProt Q9H8L6 495-674, looked up)
chain: QKLYLDLDVIREGQRDATRALEETQVSLDERRQLDGSSLQALQNAVDAVSLAVDAHKAEGERARAATSRLRSQVQALDDEVGALKAAAAEARHEVRQLHSAFAALLEDALRHEAVLAALFGEEVLEEMSEQTPGPLPLSYEQIRVALQDAASGLQEQALGWDELAARVTALEQASEPPRP
notes: codon optimized synthetic DNA in pET23a between NdeI and NotI; The fragment was made 'with His tag or avitag'; also called MMRN2 peptide; source: E. coli BL21-DE3 pLysS, purified (Nickel-NTA, size exclusion chromatography), endotoxin removed
For B1, the binding result is listed as “binds”.
